Results reported in patent US20240325562A1 (LINXIS B V, published 2024).
Residue numbers refer to the chain shown, from its start.

What was measured:
[1] = target: T1, recombinant human extracellular domain of IGF2R (human, UniProt P11717 41-2304); test: competition assay on immobilized hIGF2R-ECD, competitor for 13F11-A647
T1 construct: extracellular domain; Recombinant, immobilized on plates; also called hIGF2R-ECD; human IGF2R ectodomain (ECD)
Description: Biparatopic VHH constructs contain two VHH which bind to a different epitope, i.e. which are non-competitive binders. To identify (a) pair(s) of non-competitive binders, competition assays were performed. In the example shown, an Alexa fluor-conjugate of the high affine VHH 13F11 was used as the reporter VHH (13F11-A647, see example 10.2). In the assay, a non-saturating amount (10 nM) of 13F11-A647 was incubated with immobilized hIGF2R-ECD in the presence or absence of 250 nM unconjugated competitor VHH to allow competition to take place.

[2] = target: T2, recombinant hPDGFRB ectodomain (human, UniProt P09619 33-532); test: competition ELISA on human PDGFRB ECD, IRDye800-SP26P as reporter and unconjugated SP26P as competitor
T2 construct: extracellular domain; also called hPDGFRB-ECD; human PDGFRB ECD

[3] = target: T3, human IGF2R on cells (human, UniProt P11717 41-2491); test: cell-based or functional assay
[4] = target: T4, rat IGF2R on cells (rat, UniProt A0A8I6GLL6 43-2479); test: cell-based or functional assay
[5] = target: T1, recombinant human extracellular domain …; test: direct binding assay of the Alexa Fluor 647 conjugate on hIGF2R-ECD, one-site specific binding fit
Description: (§1) These conjugates were then subjected to direct binding assays on immobilized hIGF2R-ECD, meaning that plates were read out immediately after washing, without additional detection steps. […] For detailed analysis, binding parameters KD and Bₘₐₓ were calculated in Graphpad (version 8.3), using one-site specific binding analysis (FIG. 8D).
Based on their high affinity and binding to non-overlapping receptor epitopes, VHHs 13F11 and 13E8 were selected for the design of biparatopic and bivalent VHH constructs. Two VHHs were fused with a flexible linker, consisting of three Gly-Gly-Gly-Gly-Ser repeats (FIG. 8A). The sequences were codon optimized for expression in E. coli and obtained as synthesized DNA fragments from GeneArt. The DNA fragments encoding VHHs were cloned into a vector pET28-based vector introducing a C-terminal free cysteine for site-directed conjugation and His6 tag for IMAC purification (FIG. 8A). The VHH constructs were produced and purified as described in example 4. […] In a similar binding assay, IR dye 800 (IRD800) conjugates were prepared (as outlined in example 10.2) of the monomeric VHHs 13F11 and 13E8, the biparatopic VHH construct 13F11-13E8, the reciprocal biparatopic construct 13E8-13F11, the bivalent VHH construct 13F11-13F11, and the non-binding (control-) VHH R2. Conjugated constructs were then subjected to binding assay as described above.

[6] = target: T5, rat serum albumin (rat, UniProt P02770 25-608); test: binding assay of the IRDye800 conjugate on serum albumin
T5 construct: also called RSA
T5 sequence (P02770 25-608 limits assumed): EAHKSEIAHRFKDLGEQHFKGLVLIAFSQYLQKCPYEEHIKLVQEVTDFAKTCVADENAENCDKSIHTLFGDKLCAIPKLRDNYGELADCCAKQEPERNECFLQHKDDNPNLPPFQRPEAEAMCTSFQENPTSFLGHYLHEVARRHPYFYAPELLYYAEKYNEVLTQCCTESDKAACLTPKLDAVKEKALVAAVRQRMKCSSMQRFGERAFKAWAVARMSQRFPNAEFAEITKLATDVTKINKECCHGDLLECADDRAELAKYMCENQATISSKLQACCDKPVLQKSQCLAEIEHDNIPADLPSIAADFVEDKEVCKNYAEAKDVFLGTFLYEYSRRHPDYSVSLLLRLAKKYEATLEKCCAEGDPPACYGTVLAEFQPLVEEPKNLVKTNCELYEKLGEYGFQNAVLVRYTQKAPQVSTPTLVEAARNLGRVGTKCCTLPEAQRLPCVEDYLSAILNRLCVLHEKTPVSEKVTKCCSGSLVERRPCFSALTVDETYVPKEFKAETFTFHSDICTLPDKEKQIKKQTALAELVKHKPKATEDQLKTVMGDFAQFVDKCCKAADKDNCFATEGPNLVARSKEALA

[7] = target: T6, mouse serum albumin (mouse, UniProt P07724 25-608); test: as above
T6 construct: also called MSA
T6 sequence (P07724 25-608 limits assumed): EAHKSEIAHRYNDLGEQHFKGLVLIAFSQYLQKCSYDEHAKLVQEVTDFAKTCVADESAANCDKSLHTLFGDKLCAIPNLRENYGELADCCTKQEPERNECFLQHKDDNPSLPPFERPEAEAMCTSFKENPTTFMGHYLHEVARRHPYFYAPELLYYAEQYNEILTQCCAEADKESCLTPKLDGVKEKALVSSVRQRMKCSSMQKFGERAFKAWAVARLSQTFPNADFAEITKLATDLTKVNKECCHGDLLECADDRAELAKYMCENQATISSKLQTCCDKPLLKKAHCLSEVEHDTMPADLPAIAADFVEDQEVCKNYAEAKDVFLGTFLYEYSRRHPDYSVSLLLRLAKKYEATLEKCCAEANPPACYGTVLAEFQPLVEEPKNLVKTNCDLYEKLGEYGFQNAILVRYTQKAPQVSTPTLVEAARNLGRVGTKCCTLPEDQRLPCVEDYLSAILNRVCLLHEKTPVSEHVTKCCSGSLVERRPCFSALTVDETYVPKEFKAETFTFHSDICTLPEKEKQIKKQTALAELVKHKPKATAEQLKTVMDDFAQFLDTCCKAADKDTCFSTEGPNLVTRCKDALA

[8] = target: T7, human serum albumin (human, UniProt P02768 25-609); test: as above
T7 construct: also called HSA

[9] = target: T1, recombinant human extracellular domain …; test: direct binding assay of the fluorescent conjugate on immobilized hIGF2R-ECD, one-site specific binding fit
Description: as §1

[10] = target: T1, recombinant human extracellular domain …; test: binding assay on immobilized hIGF2R-ECD, detection with anti-VHH antibody
Description: The 15 unique hIGF2R-binding VHH (Example 2.1, FIG. 2) were produced and purified as described in examples 3 and 4. The apparent affinities were determined through binding assay on immobilized hIGF2R-ECD. Briefly, three-fold serial dilution series, starting from 1 μM, of each VHH were plated onto hIGF2R-ECD coated plates. VHH were allowed to bind for two hours after which plates were washed. Then, bound VHH was detected using a VHH-specific IgG antibody, followed by an IRD800CW-conjugated IgG-specific antibody. Plates were read out by fluorimetry.

[11] = target: T8, full-length human PDGFRB on cells (human, UniProt P09619 33-1106); test: binding assay on cells transgenically expressing human PDGFRB, FIG. 15C
T8 construct: whole, on cells; also called hPDGFRB; SCC-hPDGFRB
T8 sequence (P09619 33-1106): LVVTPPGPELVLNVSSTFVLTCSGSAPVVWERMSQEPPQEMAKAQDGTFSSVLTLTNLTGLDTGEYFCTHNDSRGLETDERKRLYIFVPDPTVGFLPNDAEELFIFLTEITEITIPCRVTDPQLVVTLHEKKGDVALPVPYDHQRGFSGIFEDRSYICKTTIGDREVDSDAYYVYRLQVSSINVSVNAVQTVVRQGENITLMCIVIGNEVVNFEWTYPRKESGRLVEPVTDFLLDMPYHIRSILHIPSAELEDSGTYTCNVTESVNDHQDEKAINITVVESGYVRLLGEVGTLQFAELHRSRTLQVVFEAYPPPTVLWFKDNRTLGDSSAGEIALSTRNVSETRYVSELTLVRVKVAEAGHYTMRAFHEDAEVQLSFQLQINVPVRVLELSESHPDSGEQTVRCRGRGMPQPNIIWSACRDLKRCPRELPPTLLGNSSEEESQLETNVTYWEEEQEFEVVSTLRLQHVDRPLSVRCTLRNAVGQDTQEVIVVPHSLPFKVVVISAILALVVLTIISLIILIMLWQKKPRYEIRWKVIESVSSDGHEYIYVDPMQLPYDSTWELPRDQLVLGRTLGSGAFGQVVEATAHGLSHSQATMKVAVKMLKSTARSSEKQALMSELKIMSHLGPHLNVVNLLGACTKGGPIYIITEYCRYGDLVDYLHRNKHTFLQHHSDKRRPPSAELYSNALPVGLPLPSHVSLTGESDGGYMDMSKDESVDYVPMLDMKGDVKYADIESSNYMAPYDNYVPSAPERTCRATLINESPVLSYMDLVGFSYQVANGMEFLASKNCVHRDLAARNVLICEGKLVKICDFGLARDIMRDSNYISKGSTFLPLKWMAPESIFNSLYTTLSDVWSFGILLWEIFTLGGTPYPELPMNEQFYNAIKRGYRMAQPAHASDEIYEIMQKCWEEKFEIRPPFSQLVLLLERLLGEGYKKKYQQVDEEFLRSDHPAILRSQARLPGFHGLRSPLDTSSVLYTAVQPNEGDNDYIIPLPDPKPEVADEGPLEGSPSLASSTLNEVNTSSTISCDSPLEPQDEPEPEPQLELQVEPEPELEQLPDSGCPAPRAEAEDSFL

[12] = target: T4, rat IGF2R on cells; test: binding assay on SCC cells transgenically expressing rat IGF2R
Description: (§2) To examine whether 13F11-13E8 is cross-reactive against rodent IGF2R, the construct as well as its corresponding monomeric VHHs were conjugated to IRDye800CW (F11E8-IRD800, conjugation method as described in example 10.2) and the binding affinity was determined using a binding assay on SCC cells that transgenically expressed either murine IGF2R (mIGF2R), rIGF2R, or hIGF2R (FIGS. 12A-D).

[13] = target: T9, murine IGF2R on cells (murine, UniProt Q07113 36-2483); test: binding assay on SCC cells transgenically expressing murine IGF2R
T9 construct: whole, on cells; also called mIGF2R
T9 sequence (Q07113 36-2483): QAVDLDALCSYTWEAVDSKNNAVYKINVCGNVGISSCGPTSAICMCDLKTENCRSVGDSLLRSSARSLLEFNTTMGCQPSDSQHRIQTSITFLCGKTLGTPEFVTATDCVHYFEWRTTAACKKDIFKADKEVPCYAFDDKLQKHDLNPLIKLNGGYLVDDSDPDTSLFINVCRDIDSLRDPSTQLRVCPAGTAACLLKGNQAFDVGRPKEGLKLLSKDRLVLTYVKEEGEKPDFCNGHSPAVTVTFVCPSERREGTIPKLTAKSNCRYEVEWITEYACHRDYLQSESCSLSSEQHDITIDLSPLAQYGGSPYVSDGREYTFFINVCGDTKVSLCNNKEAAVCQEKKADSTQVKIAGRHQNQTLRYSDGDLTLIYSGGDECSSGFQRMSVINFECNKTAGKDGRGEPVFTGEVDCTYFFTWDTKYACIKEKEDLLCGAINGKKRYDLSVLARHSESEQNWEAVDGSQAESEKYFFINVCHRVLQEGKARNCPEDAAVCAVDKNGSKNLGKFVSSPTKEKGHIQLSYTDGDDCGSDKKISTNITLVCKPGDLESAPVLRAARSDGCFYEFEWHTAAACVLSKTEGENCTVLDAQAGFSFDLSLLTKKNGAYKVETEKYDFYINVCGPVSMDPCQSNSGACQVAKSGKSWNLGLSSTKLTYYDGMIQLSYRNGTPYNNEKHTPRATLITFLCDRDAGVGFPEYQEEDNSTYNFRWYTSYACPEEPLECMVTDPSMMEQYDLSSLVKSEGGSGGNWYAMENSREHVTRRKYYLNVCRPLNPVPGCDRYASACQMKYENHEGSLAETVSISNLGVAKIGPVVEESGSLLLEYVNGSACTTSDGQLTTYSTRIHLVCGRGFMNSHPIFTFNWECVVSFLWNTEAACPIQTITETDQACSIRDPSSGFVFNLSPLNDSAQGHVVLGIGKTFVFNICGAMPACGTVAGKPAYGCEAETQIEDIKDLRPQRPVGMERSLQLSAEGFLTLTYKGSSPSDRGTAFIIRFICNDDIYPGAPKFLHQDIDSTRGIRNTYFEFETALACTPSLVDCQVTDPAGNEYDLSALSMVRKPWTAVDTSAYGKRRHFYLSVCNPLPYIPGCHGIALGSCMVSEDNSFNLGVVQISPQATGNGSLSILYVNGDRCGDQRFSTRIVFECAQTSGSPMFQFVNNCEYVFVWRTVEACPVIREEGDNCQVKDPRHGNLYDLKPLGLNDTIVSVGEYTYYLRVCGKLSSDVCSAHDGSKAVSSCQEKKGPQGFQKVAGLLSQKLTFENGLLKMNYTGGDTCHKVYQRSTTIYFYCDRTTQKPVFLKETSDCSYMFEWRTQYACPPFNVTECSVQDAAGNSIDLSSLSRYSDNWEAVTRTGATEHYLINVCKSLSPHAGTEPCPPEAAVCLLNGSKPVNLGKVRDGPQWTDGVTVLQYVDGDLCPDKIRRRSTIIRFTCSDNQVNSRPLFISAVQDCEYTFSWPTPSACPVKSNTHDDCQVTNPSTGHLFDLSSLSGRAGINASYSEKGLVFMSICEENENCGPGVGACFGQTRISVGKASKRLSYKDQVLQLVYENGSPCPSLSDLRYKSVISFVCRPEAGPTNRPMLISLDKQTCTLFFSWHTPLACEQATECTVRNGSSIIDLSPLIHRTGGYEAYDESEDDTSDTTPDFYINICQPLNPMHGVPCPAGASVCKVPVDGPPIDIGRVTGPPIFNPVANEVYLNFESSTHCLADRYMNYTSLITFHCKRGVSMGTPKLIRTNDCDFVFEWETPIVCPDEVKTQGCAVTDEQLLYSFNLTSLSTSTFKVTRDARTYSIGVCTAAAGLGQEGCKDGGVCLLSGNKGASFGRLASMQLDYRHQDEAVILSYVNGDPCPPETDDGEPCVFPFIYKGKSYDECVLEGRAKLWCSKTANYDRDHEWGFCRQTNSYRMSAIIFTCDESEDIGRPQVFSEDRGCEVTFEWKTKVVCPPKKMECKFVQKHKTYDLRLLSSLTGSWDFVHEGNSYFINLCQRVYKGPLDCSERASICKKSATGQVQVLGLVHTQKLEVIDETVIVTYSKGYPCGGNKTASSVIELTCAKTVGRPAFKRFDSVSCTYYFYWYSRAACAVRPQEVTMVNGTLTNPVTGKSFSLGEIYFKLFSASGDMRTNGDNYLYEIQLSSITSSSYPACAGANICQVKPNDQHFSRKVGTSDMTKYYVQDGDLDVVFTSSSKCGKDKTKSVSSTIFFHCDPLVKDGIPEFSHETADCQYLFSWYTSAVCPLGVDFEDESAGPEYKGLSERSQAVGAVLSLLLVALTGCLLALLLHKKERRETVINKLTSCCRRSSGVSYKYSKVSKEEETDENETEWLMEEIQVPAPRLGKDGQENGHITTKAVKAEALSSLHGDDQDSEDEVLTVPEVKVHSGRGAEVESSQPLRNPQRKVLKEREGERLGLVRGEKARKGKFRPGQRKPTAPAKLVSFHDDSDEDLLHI
Description: as §2

[14] = target: T3, human IGF2R on cells; test: binding assay on SCC cells transgenically expressing human IGF2R
Description: as §2

B1: 13G10 (VHH)
VHH: EVQLVESGGGLVQAGGSLRLSCAASGLTFSSYTMAWYRQAPGKEREVVAAISSGDSIYHEDSVQGRFIISRDNAKNTVYLQMNSLKAEDTAVYYCRANGPGTYWGQGTQVTVSS
notes: On phage in the phage ELISA; purified from E. coli in the other assays
Q: Does B1 bind [1]?
A: Result: binds

B2: 13C11 (VHH)
VHH: B1 VHH with D61G
notes: as for B1
Q: Does B2 bind [1]?
A: Result: binds

B3: SP26P (VHH)
VHH: EVQLVESGGGLVQAGGSLRLSCAASGRSFSSSVMGWFRQTPGKEREFVAATRWTAASTHYADSVKGRFTISRDHAENAVFLQMNSLKPEDTAVYYCAAGNYLDTAQYRYNYWGQGTQVTVSS
modifications: In the competition assay the reporter copy carried IRDye800 on the C-terminal cysteine, which is not in the letters.
notes: From libraries 3 and 4 (raised against rPDGFRB)
Q: Does B3 bind [2]?
A: Result: binds

B4: 13E8-13F11-IRD800 (bispecific antibody, not shown: small tags and cut ends)
chain: EVQLVESGGGLVQAGGSLRLSCAASRSISPMGWYRQAPGKQRELVAIMPSSGPPIYADSVQGRFTISRDNAKNTVYLQMNSLKPEDTAVYYCNVGGGYWGQGTQVTVSSGGGGSGGGGSGGGGSEVQLVESGGRLVQPGDSLRLSCAASGRTFSDNAMGWFRQAPGKERRFVAGISWAGGSTYYSDSVKGRFTISRDNAKNTVYLQMNSLKPEDTAVYYCAAGLRAWVQRMPKDYNYWGQGTQVTVSS
modifications: IRDye 800CW coupled by maleimide to the C-terminal free cysteine, which is not in the letters
Q: B4 was tested. Which “endocytic rate constant, ke” value [3] did it give?
A: Its value is ~1.5 min⁻¹.

Q: What about the “endocytic rate constant, ke” value [4] of the same binder?
A: The value was ~0.7 min⁻¹.

B5: 13E8-13F11-A647 (bispecific antibody)
chain: B4 chain
modifications: Alexa Fluor 647 coupled by maleimide to the C-terminal free cysteine, which is not in the letters
notes: Biparatopic tandem VHH, reciprocal order; not shown: C-terminal tail: free Cys, possible thrombin site and His6 tag
Q: How did the Kd [5] turn out when B5 was run?
A: Its Kd is 2.5 nM.

B6: 13F11-13E8-ABD-IRD800 (other)
chain: EVQLVESGGRLVQPGDSLRLSCAASGRTFSDNAMGWFRQAPGKERRFVAGISWAGGSTYYSDSVKGRFTISRDNAKNTVYLQMNSLKPEDTAVYYCAAGLRAWVQRMPKDYNYWGQGTQVTVSSGGGGSGGGGSGGGGSEVQLVESGGGLVQAGGSLRLSCAASRSISPMGWYRQAPGKQRELVAIMPSSGPPIYADSVQGRFTISRDNAKNTVYLQMNSLKPEDTAVYYCNVGGGYWGQGTQVTVSSLAEAKVLANRELDKYGVSDYYKNLINNAKTVEGVKALIDEILAALP
Q: What does the source list for B6?
A: Kd [6]: 30 nM; Kd [7]: ~200 nM; Kd [8]: ~200 nM

B7: 13F11-A647 (VHH)
VHH: EVQLVESGGRLVQPGDSLRLSCAASGRTFSDNAMGWFRQAPGKERRFVAGISWAGGSTYYSDSVKGRFTISRDNAKNTVYLQMNSLKPEDTAVYYCAAGLRAWVQRMPKDYNYWGQGTQVTVSS
modifications: Alexa Fluor 647 is coupled by maleimide chemistry to the C-terminal free cysteine of the expression tail. The dye, that cysteine and the tag are not in the letters.
notes: Fluorescent conjugate of monomeric 13F11; also called labelled 13F11
Q: For B7, which Kd [9] is on record?
A: The Kd was 1 nM.

B8: 13F11 (VHH)
VHH: B7 VHH
notes: On phage in the phage ELISA; purified from E. coli in the other assays; also called native 13F11; unconjugated 13F11
Q: B8 was tested. Which Kd [10] did it give?
A: The Kd was 0.23 nM.

B9: SP02P-SP26P (bispecific antibody, not shown: small tags and cut ends)
chain: EVQLVESGGGLVQAGGSLRLSCAASESISSIEQMGWFRQAPGKQRALVAINTYGGRTVYTNSVEGRFTMSRDSAKNMVYLQMTSLEPEDTAVYYCYAQTTAWRGGVWGQGTQVTVSSGGGGSGGGGSGGGGSEVQLVESGGGLVQAGGSLRLSCAASGRSFSSSVMGWFRQTPGKEREFVAATRWTAASTHYADSVKGRFTISRDHAENAVFLQMNSLKPEDTAVYYCAAGNYLDTAQYRYNYWGQGTQVTVSS
notes: also called SP02-SP26P
Q: For B9, which Kd [11] is on record?
A: The Kd was < 5 nM.

B10: 13F11-13E8-IRD800 (bispecific antibody)
chain: EVQLVESGGRLVQPGDSLRLSCAASGRTFSDNAMGWFRQAPGKERRFVAGISWAGGSTYYSDSVKGRFTISRDNAKNTVYLQMNSLKPEDTAVYYCAAGLRAWVQRMPKDYNYWGQGTQVTVSSGGGGSGGGGSGGGGSEVQLVESGGGLVQAGGSLRLSCAASRSISPMGWYRQAPGKQRELVAIMPSSGPPIYADSVQGRFTISRDNAKNTVYLQMNSLKPEDTAVYYCNVGGGYWGQGTQVTVSS
modifications: IRDye 800CW coupled by maleimide to the C-terminal free cysteine, which is not in the letters
notes: Biparatopic tandem VHH; also called F11E8-IRD800; IRDye800-conjugated 13F11-13E8 (F11E8); not shown: C-terminal tail: free Cys, possible thrombin site and His6 tag
Q: Which Kd [12] does the source give for B10 here?
A: Its Kd is < 10 nM.

Q: And the Kd [13]?
A: Its Kd is < 10 nM.

Q: And the Kd [14]?
A: The Kd was < 10 nM.

Q: And the “endocytic rate constant, ke” value [3]?
A: The value was ~1.5 min⁻¹.

Q: What about the “endocytic rate constant, ke” value [4] of the same binder?
A: Its value is ~0.7 min⁻¹.

B11: 13F11-13E8-A647 (bispecific antibody)
chain: B10 chain
modifications: Alexa Fluor 647 coupled by maleimide to the C-terminal free cysteine, which is not in the letters
notes: Biparatopic tandem VHH; not shown: C-terminal tail: free Cys, possible thrombin site and His6 tag
Q: With B11 as the binder, how does the Kd [5] read?
A: The Kd was 2.5 nM.
